Reference: the supplement of paper PMC10567573

B1: C22orf15 (parent)
chain: ITQSWQVSVRVQPRGRAHLLPNPY

Variants of: B1
Experiment: protein stability index of a GFP-peptide fusion (GPS, HEK-293T) (PSI 1-6); higher = more stable
Conditions: c terminus: a fixed tail appended
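Further: lentivirally expressed fusions sorted by FACS into six bins by GFP to DsRed ratio, PSI derived from sequencing read proportions per bin multiplied by bin number.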

Protein stability index of substitutions, site by site:
R10: K 2.41; M 2.9; T 1.98; L 2.47; W 2.02; G 2.89; D 2.05; I 3.79; P 1.83; N 2.63; Q 2.09; C 1; H 1.5; Y 2.12; E 1.32; F 2.62; S 1.98; A 1.83
I1: L 1.5; S 1.78; G 1.92; V 1.41; K 2.18; M 1.26; A 2.73; Q 1.31; R 1.68; P 1.64; D 2.12; H 2.61; N 2.24; T 1.9; C 4.55
R16: F 3.25; P 2.07; S 2.21; H 1.89; D 2.88; V 1.24; W 2.89; E 1.24; I 2.26; C 4.64; T 2.14; L 1.69; Q 1; Y 3.74; N 1.4
G15: A 4.31; R 1.73; Q 1.48; P 3.81; N 3.33; T 1.51; F 1.97; E 2.02; W 4.12; V 2.31; H 2.03; D 1.94; C 1.97; Y 1.77
W5: C 2.25; L 3.62; K 3.36; A 1.86; I 4.28; D 2.32; T 1.48; H 2.57; S 2.69; N 2.86; M 1.61; P 2.56; F 2.29; V 3.07; R 2.21; Y 1.84
R14: K 2.25; N 1.98; T 1.05; Q 2.15; Y 1.85; A 3.37; F 1.78; E 2.73; I 1.54; D 1.87; H 2; P 1.68; L 2.15
L20: V 4.25; K 1.01; I 2.29; S 1.03; A 1.91; R 1.7; H 1.51; P 1.17; Y 3.07; T 3.22; N 2.16; C 1.97
H18: Y 1.95; A 2.9; T 2.13; L 3.13; K 1.74; N 2.99; Q 2.99; E 1.36; M 1.83; D 2.29; P 2.7; I 1.29; V 2.19; C 1.49
S8: T 3.34; G 2.39; F 2.21; R 2.73; M 2.55; Y 1.8; P 1.71; E 1.54; D 2.65; C 1.12; H 2.28
V11: E 2.65; S 1.95; G 2.43; M 3.05; D 2.45; R 1.86; K 3.28; Y 1.68; I 4.95; A 2.07; T 1.87; N 2.51; Q 1.49; H 2.49; P 1.8
N22: P 1.17; K 2.17; Q 2.43; D 1.62; M 1.88; E 1.59; R 2.33; Y 2.09; F 1.49; V 1.75; I 2.39; A 2.85; H 1.75; S 4.3; L 3.15; T 1.89
V9: P 1.81; D 2.02; M 1.34; A 2.19; Q 2.44; F 1.74; N 2.45; S 1.91; I 2.64; H 2.88; K 1.91
P21: R 1.79; T 2.87; H 2.78; I 1.91; C 3.18; V 1.94; Q 1.52; A 1.29; N 1.68; L 2.04; K 1.64; E 1.6; Y 2.38; S 1.7
Q12: T 1; K 1.79; E 2.61; Y 2.25; N 2.98; W 2.49; M 3.2; G 3.64; C 1.77; P 1.72; D 2.27; S 2.13; F 3.49; A 1.16; H 2.27
Q3: S 3.25; W 1.68; T 1.51; F 2.14; Y 4.26; A 3.08; R 1.1; N 1.85; E 1.07; K 1.95; H 2.02
Q6: D 2.15; T 1.77; S 1.9; E 1.92; F 4.73; Y 1.96; P 3.07; N 1.73; I 2.74; A 1.09
A17: W 2.46; R 1.66; Q 1.68; I 2.96; Y 3.21; P 1.81; N 1.7; L 2.42; V 2.58; F 1.1; C 3.18; G 3.81; D 1.76; H 3.03; K 1.34; S 2.46; T 2.28; M 2.57
T2: C 3.3; M 3.15; D 2.46; Q 2.53; K 1.87; E 1.69; S 1.77; G 1.77; F 2.43; L 2.27; W 2.62; P 2.43; A 1.43; H 1.45
Y24: S 1.34; W 2.93; N 1.54; C 1.71; R 2.1; K 2.19; P 1.15; I 2.29; Q 1.47; F 2.47; A 1.39; H 1.07; T 2.34; D 1.75
P23: L 1.46; Q 1.93; A 1.34; G 1.32; N 3.05; E 1.51; S 1.92; W 1.11; H 1.27; I 2.08; C 1.6; K 2.09; D 1.42; R 1.87
V7: G 2.34; P 2.7; R 2.39; A 2.77; E 2.29; K 1.81; S 2.12; N 2.38; T 2.04; F 2.22; D 2.42; H 2.68; W 1.5; L 1.88; M 2.46; Q 2.51
L19: E 3.62; V 1.6; I 2.81; K 2.33; M 3.54; H 1.92; D 1.82; P 1.78; Q 1.93; N 1.49; R 2.43; G 2.23; C 2.07; S 2.1
S4: F 3.65; T 1.48; Y 2.42; N 1.73; H 2.83; R 2.99; P 1.65; K 1.42; Q 1.87; G 2.27; A 3.33
P13: Y 2.01; R 1.16; L 2.69; G 1.64; Q 2.21; V 3.02; N 1.74; K 1.65; T 1.94; D 1.86; S 2.67; H 2.27; I 2.67
